Measured values reported in PMC11252911 (Proceedings of the National Academy of Sciences of the …, 2024).

T1: HMA domain of OsHIPP43 (residues 26 to 101) (rice, UniProt Q8LJL3 26-101)
T1 construct: also called Os01g0507700
T1 sequence (looked up): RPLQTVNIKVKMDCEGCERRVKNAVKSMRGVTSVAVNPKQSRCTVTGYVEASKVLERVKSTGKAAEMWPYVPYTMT

B1: Pwl1 (natural protein)
chain: RKWTNKVIYNDKGEREGSISIRKGAEGDFNCGPGYPGGPDRMVRVHEDNGNIRGMPPGYRLGPDDKEDKRDNQYYSRNGYHVGDGPAEYQNHGGGQWGDGYYGPPGEITNQHGKRQGDQGCHIM

Columns and labels:
Assay in all cases: ITC
[1] = target: Pwl4 (Magnaporthe oryzae)
[2] = target: Pwl2 without the signal peptide (residues 22 to 145) (Magnaporthe oryzae)
[3] = target: T1, HMA domain of OsHIPP43 (residues 26 to …); conditions: both partners purified

Molecule	Kd [1]	Kd [2]	dH [2]	Kd [3]
HMA domain of OsHIPP43 (residues 26 to 101) (from UniProt Q8LJL3 26-101) (domain or fragment)	124 nM	191 nM	-67.6 kcal/mol	
B1				147 nM
